Results taken from US11407819B2, “Compositions and use of a fibrinogen binding motif present in EFB and COA for therapeutics and vaccines against Staphylococcus aureus” (priority 2013, dated 2022).
“Also recorded” adds a separate entry of the source.

Target: T1, rCoa-C binding to Fg (Homo sapiens, UniProt P02671+P02675+P02679)
T1 construct: full-length human Fibrinogen (diluted in PBS, Enzyme research); purchased Enzyme research; host or cells: Coa probe made in E. coli BL21
T1 sequence (P02671 20-629 limits assumed): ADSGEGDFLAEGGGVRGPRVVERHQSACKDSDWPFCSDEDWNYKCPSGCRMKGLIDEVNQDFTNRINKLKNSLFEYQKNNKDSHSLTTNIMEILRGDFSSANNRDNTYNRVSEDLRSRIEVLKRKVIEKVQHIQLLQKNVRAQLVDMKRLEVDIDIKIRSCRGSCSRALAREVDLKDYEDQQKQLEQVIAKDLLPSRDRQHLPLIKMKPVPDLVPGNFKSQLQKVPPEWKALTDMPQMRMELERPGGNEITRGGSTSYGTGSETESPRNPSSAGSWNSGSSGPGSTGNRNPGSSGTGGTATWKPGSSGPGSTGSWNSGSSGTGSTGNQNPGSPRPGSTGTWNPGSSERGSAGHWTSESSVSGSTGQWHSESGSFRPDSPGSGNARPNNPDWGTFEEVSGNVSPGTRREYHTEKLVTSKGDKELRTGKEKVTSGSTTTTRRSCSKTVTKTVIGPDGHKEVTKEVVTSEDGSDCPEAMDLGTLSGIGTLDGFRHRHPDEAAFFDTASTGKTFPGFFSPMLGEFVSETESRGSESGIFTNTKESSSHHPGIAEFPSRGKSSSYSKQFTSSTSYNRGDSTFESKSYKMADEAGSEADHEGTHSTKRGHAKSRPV
T1 sequence (P02675 31-491): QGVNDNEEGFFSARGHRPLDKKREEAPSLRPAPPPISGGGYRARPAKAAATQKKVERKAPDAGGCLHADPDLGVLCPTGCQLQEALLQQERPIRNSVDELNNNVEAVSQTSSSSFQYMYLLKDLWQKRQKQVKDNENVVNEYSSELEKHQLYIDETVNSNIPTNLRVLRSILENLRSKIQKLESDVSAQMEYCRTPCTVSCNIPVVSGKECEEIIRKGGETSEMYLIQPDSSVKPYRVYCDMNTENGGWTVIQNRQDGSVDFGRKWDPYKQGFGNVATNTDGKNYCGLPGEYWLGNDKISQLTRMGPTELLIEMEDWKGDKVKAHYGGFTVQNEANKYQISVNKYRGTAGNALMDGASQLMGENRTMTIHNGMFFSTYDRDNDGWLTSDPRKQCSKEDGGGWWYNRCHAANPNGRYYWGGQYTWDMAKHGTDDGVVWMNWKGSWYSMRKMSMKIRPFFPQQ
T1 sequence (P02679 27-453): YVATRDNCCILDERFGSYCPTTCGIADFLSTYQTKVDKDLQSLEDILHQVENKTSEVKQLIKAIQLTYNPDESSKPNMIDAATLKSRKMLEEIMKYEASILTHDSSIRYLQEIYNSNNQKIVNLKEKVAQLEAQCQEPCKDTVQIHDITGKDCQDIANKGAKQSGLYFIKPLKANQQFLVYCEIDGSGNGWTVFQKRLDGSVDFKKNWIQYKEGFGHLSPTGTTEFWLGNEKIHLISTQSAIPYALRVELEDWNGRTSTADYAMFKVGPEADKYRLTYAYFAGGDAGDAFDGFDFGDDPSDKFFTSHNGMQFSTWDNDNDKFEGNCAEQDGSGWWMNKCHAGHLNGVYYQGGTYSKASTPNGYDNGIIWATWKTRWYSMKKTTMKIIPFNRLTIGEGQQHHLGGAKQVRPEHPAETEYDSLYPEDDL
Assay: Competition ELISA, peptide inhibition of rCoa-C (Coa 311-636) binding to Fg
Conditions: increasing concentrations of peptides; 4 nM GST fusion protein
Protocol: The residues in Coa-RI important for fibrinogen binding. FIG. 12A is a panel of coa-RI variant peptides were synthesized where each residue in the sequence is individually replaced with Ala (or Ser when the native a.a. is Ala). […] Wells were coated with 0.25 μg/well Fg. Labels -1, -2, -3, -4, -5, -6, -7, -8, -9, -10, -11, -12, -13, -14, -15, -16, -17, -18, -19, -20, -21, -22, -23, -24, -25, -26, -27 refer to Coa-RI-1, Coa-RI-2, Coa-RI-3, Coa-RI-4, Coa-RI-5, Coa-RI-6, Coa-RI-7, Coa-RI-8, Coa-RI-9, Coa-RI-10, Coa-RI-11, Coa-RI-12, Coa-RI-13, Coa-RI-14, Coa-RI-15, Coa-RI-16, Coa-RI-17, Coa-RI-18, Coa-RI-19, Coa-RI-20, Coa-RI-21, Coa-RI-22, Coa-RI-23, Coa-RI-24, Coa-RI-25, Coa-RI-26, Coa-RI-27, respectively. FIG. 12C is a comparison of amino acid sequence of Efb-O with Coa-RI. FIG. 12D is a Fg-binding register of tandem repeats in Coa. Bold letters denote the residues that are important for Fg binding. Binding of a fixed concentration of rCoa-C (2 nM) to immobilized Fg was determined in the presence of a fixed concentration of these peptides (50 uM) (FIG. 12B). […]
FIG. 13A is a schematic presentation of Coa peptides. […] The Fg binding activities of these peptides were then investigated in a competition ELISA where the binding of rCoa-C to Fg coated microtiter wells were determined in the presence of increasing concentrations of peptide (FIG. 13B). […]

sCoa-RI: synthetic peptide, first 27 residues of repeat region, Coa 506-532 (ETNAYNVTTHANGQVSYGARPTYKKPS)
inhibition of rCoa-C binding to fibrinogen by overlapping Coa R peptides: some inhibitory activity; also recorded: most potent inhibitor
